{"source": "patent US9677045B2", "about": "“Microorganisms and methods for production of 4-hydroxybutyrate, 1,4-butanediol and related compounds” (priority 2012, dated 2017)", "key": {"[1]": {"test_system": "BCKA in Bacillus subtilis", "settings": "decarboxylation; cited from earlier work"}, "[2]": {"target": "T1, endogenous alcohol dehydrogenase (yjgB) (Escherichia coli, UniProt P27250)", "T1 sequence (P27250 1-339)": "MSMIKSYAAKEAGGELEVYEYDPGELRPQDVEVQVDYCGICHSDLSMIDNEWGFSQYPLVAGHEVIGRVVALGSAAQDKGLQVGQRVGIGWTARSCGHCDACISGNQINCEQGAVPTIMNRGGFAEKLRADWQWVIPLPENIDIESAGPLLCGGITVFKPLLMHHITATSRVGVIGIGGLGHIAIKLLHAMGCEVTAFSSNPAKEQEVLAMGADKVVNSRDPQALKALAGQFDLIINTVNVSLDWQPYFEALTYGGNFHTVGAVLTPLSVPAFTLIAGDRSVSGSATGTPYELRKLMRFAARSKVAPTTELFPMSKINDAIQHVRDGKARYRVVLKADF", "settings": "purified protein, in the presence of NADP+; FIG. 85", "method": "The sample was purified while following the backflux activity.\nA fresh sample of 1427 cells from a 2 L LB preparation grown aerobically overnight was lysed using the microfluidizer at 15,000 psi. The sample was then fractionated via ammonium sulfate.\nThe 60% ammonium sulfate pellet was resuspended in a low salt buffer and dialyzed overnight to remove the residual ammonium sulfate. The sample was loaded onto a 5 ml Q-sepharose column (strong anion exchange) and eluted via a slow increasing salt gradient.\nThe peak backflux activity from anion exchange was pooled and concentrated to allow for application to a S200 sephacryl size exclusion column.\nThe peak with the highest backflux activity from the size exclusion column was pooled and loaded on a phenyl sepharose column (hydrophobic interaction column). The ionic strength of the sample was increased to facilitate binding to the resin."}, "[3]": {"target": "T2, phosphotransbutyrylase (PTB) (Clostridium acetobutylicum, UniProt P58255)", "T2 construct": "made in house; host or cells: E. coli, plasmid pZA33-0020-0021, cell extract", "T2 sequence (P58255 1-301)": "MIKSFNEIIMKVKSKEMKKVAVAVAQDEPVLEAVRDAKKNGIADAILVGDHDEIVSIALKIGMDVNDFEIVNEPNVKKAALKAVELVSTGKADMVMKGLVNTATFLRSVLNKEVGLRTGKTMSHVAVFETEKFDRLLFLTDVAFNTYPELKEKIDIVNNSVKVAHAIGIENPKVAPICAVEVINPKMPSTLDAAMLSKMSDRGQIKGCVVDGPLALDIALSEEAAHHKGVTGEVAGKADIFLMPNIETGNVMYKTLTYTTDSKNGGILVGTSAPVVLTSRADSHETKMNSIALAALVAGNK", "test": "PTB enzyme activity, butyryl-CoA to butyryl-phosphate (DTNB)", "assay_type": "biochemical", "settings": "extracts of cells with native ptb/bk operon (0020, 0021) in pZA33", "description": "The enzyme activity of PTB is measured in the direction of butyryl-CoA to butyryl-phosphate as described in Cary et al. J. Bacteriol. 170:4613-4618 (1988). It provides inorganic phosphate for the conversion, and follows the increase in free CoA with the reagent 5,5′-dithiobis-(2-nitrobenzoic acid), or DTNB. DTNB rapidly reacts with thiol groups such as free CoA to release the yellow-colored 2-nitro-5-mercaptobenzoic acid (TNB), which absorbs at 412 nm with a molar extinction coefficient of 14,140 M cm^−1. The assay buffer contained 150 mM potassium phosphate at pH 7.4, 0.1 mM DTNB, and 0.2 mM butyryl-CoA, and the reaction was started by addition of 2 to 50 μL cell extract. The enzyme activity of BK is measured in the direction of butyrate to butyryl-phosphate formation at the expense of ATP. The procedure is similar to the assay for acetate kinase previously described Rose et al., J. Biol. Chem. 211:737-756 (1954). […] This assay links conversion of ATP to ADP by acetate kinase to the linked conversion of ADP and phosphoenolpyruvate (PEP) to ATP and pyruvate by pyruvate kinase, followed by the conversion of pyruvate and NADH to lactate and NAD+ by lactate dehydrogenase. […] The reaction was started by adding 2 to 50 μL cell extract, and the reaction was monitored based on the decrease in absorbance at 340 nm indicating NADH oxidation. […]"}}}
{"molecule": "O=C(O)CCC(=O)C(=O)O", "note": "[2-Oxoglutarate]", "values": [{"measurement": "activity relative to other branched-chain substrates", "setting": "[1]", "result": 5, "unit": "%"}]}
{"molecule": "yjgB: E. coli alcohol dehydrogenase yjgB, cloned with a streptavidin tag and purified (protein, UniProt P27250 1-339, looked up, streptavidin tag) Aldehyde reductase Ahr: MSMIKSYAAKEAGGELEVYEYDPGELRPQDVEVQVDYCGICHSDLSMIDNEWGFSQYPLVAGHEVIGRVVALGSAAQDKGLQVGQRVGIGWTARSCGHCDACISGNQINCEQGAVPTIMNRGGFAEKLRADWQWVIPLPENIDIESAGPLLCGGITVFKPLLMHHITATSRVGVIGIGGLGHIAIKLLHAMGCEVTAFSSNPAKEQEVLAMGADKVVNSRDPQALKALAGQFDLIINTVNVSLDWQPYFEALTYGGNFHTVGAVLTPLSVPAFTLIAGDRSVSGSATGTPYELRKLMRFAARSKVAPTTELFPMSKINDAIQHVRDGKARYRVVLKADF", "values": [{"measurement": "activity with BDO as a substrate", "setting": "[2]", "result": "robust activity was confirmed"}]}
{"molecule": "PTB: phosphotransbutyrylase from C. acetobutylicum (gene 0020) (protein, UniProt P58255 1-301, looked up) Phosphate butyryltransferase: MIKSFNEIIMKVKSKEMKKVAVAVAQDEPVLEAVRDAKKNGIADAILVGDHDEIVSIALKIGMDVNDFEIVNEPNVKKAALKAVELVSTGKADMVMKGLVNTATFLRSVLNKEVGLRTGKTMSHVAVFETEKFDRLLFLTDVAFNTYPELKEKIDIVNNSVKVAHAIGIENPKVAPICAVEVINPKMPSTLDAAMLSKMSDRGQIKGCVVDGPLALDIALSEEAAHHKGVTGEVAGKADIFLMPNIETGNVMYKTLTYTTDSKNGGILVGTSAPVVLTSRADSHETKMNSIALAALVAGNK", "values": [{"measurement": "specific activity of PTB", "setting": "[3]", "result": "approximately 5 U/mg"}]}
